Source: publication PMC5836512 (Molecular cell, 2018)
Read-outs that look alike come from different tables or passages of the source.

Tests used:
[1] = target: T1, Cul1^AMC•Rbx1 (UniProt Q13616 1-776; P62877 1-108, AMC on the C-terminus (GGGG^AMC peptide joined by sortase)); assay: FRET or BRET
[2] = target: T2, Cul1•^GSTRbx1 (UniProt Q13616 1-776; P62877 1-108); assay: pull-down
[3] = target: T1, Cul1^AMC•Rbx1; assay: FRET or BRET; remark: listed apart in the source
[4] = target: T2, Cul1•^GSTRbx1; assay: pull-down; remark: listed apart in the source
[5] = target: T2, Cul1•^GSTRbx1; assay: pull-down; remark: listed apart in the source

T2 sequence (Q13616 whole entry, chain 1 of 2): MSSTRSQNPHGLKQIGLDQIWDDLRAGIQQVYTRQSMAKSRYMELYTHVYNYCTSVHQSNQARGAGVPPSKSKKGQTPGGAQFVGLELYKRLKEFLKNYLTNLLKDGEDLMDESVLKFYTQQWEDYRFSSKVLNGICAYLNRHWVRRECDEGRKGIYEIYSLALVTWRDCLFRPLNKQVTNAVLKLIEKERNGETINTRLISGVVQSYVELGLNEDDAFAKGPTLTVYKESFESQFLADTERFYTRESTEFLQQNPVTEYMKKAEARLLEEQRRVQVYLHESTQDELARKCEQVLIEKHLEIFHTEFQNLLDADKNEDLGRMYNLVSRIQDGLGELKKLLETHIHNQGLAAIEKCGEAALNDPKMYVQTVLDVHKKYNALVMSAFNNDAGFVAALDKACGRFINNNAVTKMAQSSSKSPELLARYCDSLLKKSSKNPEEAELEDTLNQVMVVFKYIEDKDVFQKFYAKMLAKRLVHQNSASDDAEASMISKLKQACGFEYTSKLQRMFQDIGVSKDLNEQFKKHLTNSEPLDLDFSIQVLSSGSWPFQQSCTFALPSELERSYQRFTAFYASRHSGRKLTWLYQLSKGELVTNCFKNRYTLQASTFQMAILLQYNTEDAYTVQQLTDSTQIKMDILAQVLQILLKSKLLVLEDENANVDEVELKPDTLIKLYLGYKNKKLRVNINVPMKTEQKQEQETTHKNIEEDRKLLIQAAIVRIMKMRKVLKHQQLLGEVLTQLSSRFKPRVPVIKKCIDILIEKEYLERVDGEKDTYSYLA
T2 sequence (P62877 whole entry, chain 2 of 2): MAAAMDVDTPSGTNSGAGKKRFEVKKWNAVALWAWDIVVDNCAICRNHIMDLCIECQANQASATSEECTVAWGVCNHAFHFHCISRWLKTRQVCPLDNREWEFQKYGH
T1 sequence (Q13616 whole entry, chain 1 of 2): as the sequence (Q13616 whole entry, chain 1 of 2) above
T1 sequence (P62877 whole entry, chain 2 of 2): as the sequence (P62877 whole entry, chain 2 of 2) above

B1: ^ΔH1Cand1 (domain or fragment, UniProt Q86VP6 15-1230, looked up)
chain: MTSSDKDFRFMATNDLMTELQKDSIKLDDDSERKVVKMILKLLEDKNGEVQNLAVKCLGPLVSKVKEYQVETIVDTLCTNMLSDKEQLRDISSIGLKTVIGELPPASSGSALAANVCKKITGRLTSAIAKQEDVSVQLEALDIMADMLSRQGGLLVNFHPSILTCLLPQLTSPRLAVRKRTIIALGHLVMSCGNIVFVDLIEHLLSELSKNDSMSTTRTYIQCIAAISRQAGHRIGEYLEKIIPLVVKFCNVDDDELREYCIQAFESFVRRCPKEVYPHVSTIINICLKYLTYDPNYNYDDEDEDENAMDADGGDDDDQGSDDEYSDDDDMSWKVRRAAAKCLDAVVSTRHEMLPEFYKTVSPALISRFKEREENVKADVFHAYLSLLKQTRPVQSWLCDPDAMEQGETPLTMLQSQVPNIVKALHKQMKEKSVKTRQCCFNMLTELVNVLPGALTQHIPVLVPGIIFSLNDKSSSSNLKIDALSCLYVILCNHSPQVFHPHVQALVPPVVACVGDPFYKITSEALLVTQQLVKVIRPLDQPSSFDATPYIKDLFTCTIKRLKAADIDQEVKERAISCMGQIICNLGDNLGSDLPNTLQIFLERLKNEITRLTTVKALTLIAGSPLKIDLRPVLGEGVPILASFLRKNQRALKLGTLSALDILIKNYSDSLTAAMIDAVLDELPPLISESDMHVSQMAISFLTTLAKVYPSSLSKISGSILNELIGLVRSPLLQGGALSAMLDFFQALVVTGTNNLGYMDLLRMLTGPVYSQSTALTHKQSYYSIAKCVAALTRACPKEGPAVVGQFIQDVKNSRSTDSIRLLALLSLGEVGHHIDLSGQLELKSVILEAFSSPSEEVKSAASYALGSISVGNLPEYLPFVLQEITSQPKRQYLLLHSLKEIISSASVVGLKPYVENIWALLLKHCECAEEGTRNVVAECLGKLTLIDPETLLPRLKGYLISGSSYARSSVVTAVKFTISDHPQPIDPLLKNCIGDFLKTLEDPDLNVRRVALVTFNSAAHNKPSLIRDLLDTVLPHLYNETKVRKELIREVEMGPFKHTVDDGLDIRKAAFECMYTLLDSCLDRLDIFEFLNHVEDGLKDHYDIKMLTFLMLVRLSTLCPSAVLQRLDRLVEPLRATCTTKVKANSVKQEFEKQDELKRSAMRAVAALLTIPEAEKSPLMSEFQSQISSNPELAAIFESIQKDSSSTNLESMDTS
With B1 the “fold of koff (fast phase) over WT Cand1” value [1] was 21 fold and the “fold increase of KD over WT Cand1” value [2] was ~4.5 fold.

B2: ^FlAsHΔH1Cand1 (domain or fragment, UniProt Q86VP6 15-1230, looked up)
chain: B1 chain
modifications: FlAsH (Lumio Green) on the N-terminal tetracysteine tag
Work on B2 yielded a Kd [3] of 0.7 pM.

B3: Cand1^1-603 (domain or fragment, UniProt Q86VP6 1-603, looked up)
chain: MASASYHISNLLEKMTSSDKDFRFMATNDLMTELQKDSIKLDDDSERKVVKMILKLLEDKNGEVQNLAVKCLGPLVSKVKEYQVETIVDTLCTNMLSDKEQLRDISSIGLKTVIGELPPASSGSALAANVCKKITGRLTSAIAKQEDVSVQLEALDIMADMLSRQGGLLVNFHPSILTCLLPQLTSPRLAVRKRTIIALGHLVMSCGNIVFVDLIEHLLSELSKNDSMSTTRTYIQCIAAISRQAGHRIGEYLEKIIPLVVKFCNVDDDELREYCIQAFESFVRRCPKEVYPHVSTIINICLKYLTYDPNYNYDDEDEDENAMDADGGDDDDQGSDDEYSDDDDMSWKVRRAAAKCLDAVVSTRHEMLPEFYKTVSPALISRFKEREENVKADVFHAYLSLLKQTRPVQSWLCDPDAMEQGETPLTMLQSQVPNIVKALHKQMKEKSVKTRQCCFNMLTELVNVLPGALTQHIPVLVPGIIFSLNDKSSSSNLKIDALSCLYVILCNHSPQVFHPHVQALVPPVVACVGDPFYKITSEALLVTQQLVKVIRPLDQPSSFDATPYIKDLFTCTIKRLKAADIDQEVKERAISCMGQIICNLGDN
B3: binds [4].

B4: Cand1 (natural protein, UniProt Q86VP6 1-1230, looked up)
chain: MASASYHISNLLEKMTSSDKDFRFMATNDLMTELQKDSIKLDDDSERKVVKMILKLLEDKNGEVQNLAVKCLGPLVSKVKEYQVETIVDTLCTNMLSDKEQLRDISSIGLKTVIGELPPASSGSALAANVCKKITGRLTSAIAKQEDVSVQLEALDIMADMLSRQGGLLVNFHPSILTCLLPQLTSPRLAVRKRTIIALGHLVMSCGNIVFVDLIEHLLSELSKNDSMSTTRTYIQCIAAISRQAGHRIGEYLEKIIPLVVKFCNVDDDELREYCIQAFESFVRRCPKEVYPHVSTIINICLKYLTYDPNYNYDDEDEDENAMDADGGDDDDQGSDDEYSDDDDMSWKVRRAAAKCLDAVVSTRHEMLPEFYKTVSPALISRFKEREENVKADVFHAYLSLLKQTRPVQSWLCDPDAMEQGETPLTMLQSQVPNIVKALHKQMKEKSVKTRQCCFNMLTELVNVLPGALTQHIPVLVPGIIFSLNDKSSSSNLKIDALSCLYVILCNHSPQVFHPHVQALVPPVVACVGDPFYKITSEALLVTQQLVKVIRPLDQPSSFDATPYIKDLFTCTIKRLKAADIDQEVKERAISCMGQIICNLGDNLGSDLPNTLQIFLERLKNEITRLTTVKALTLIAGSPLKIDLRPVLGEGVPILASFLRKNQRALKLGTLSALDILIKNYSDSLTAAMIDAVLDELPPLISESDMHVSQMAISFLTTLAKVYPSSLSKISGSILNELIGLVRSPLLQGGALSAMLDFFQALVVTGTNNLGYMDLLRMLTGPVYSQSTALTHKQSYYSIAKCVAALTRACPKEGPAVVGQFIQDVKNSRSTDSIRLLALLSLGEVGHHIDLSGQLELKSVILEAFSSPSEEVKSAASYALGSISVGNLPEYLPFVLQEITSQPKRQYLLLHSLKEIISSASVVGLKPYVENIWALLLKHCECAEEGTRNVVAECLGKLTLIDPETLLPRLKGYLISGSSYARSSVVTAVKFTISDHPQPIDPLLKNCIGDFLKTLEDPDLNVRRVALVTFNSAAHNKPSLIRDLLDTVLPHLYNETKVRKELIREVEMGPFKHTVDDGLDIRKAAFECMYTLLDSCLDRLDIFEFLNHVEDGLKDHYDIKMLTFLMLVRLSTLCPSAVLQRLDRLVEPLRATCTTKVKANSVKQEFEKQDELKRSAMRAVAALLTIPEAEKSPLMSEFQSQISSNPELAAIFESIQKDSSSTNLESMDTS
B4: binds [5].
